Measured values published in publication doi:10.1101/2020.04.13.039982 (bioRxiv, 2020).

Biological target: T1, 6His-She1 C-terminal fragment (residues 194 to 338) (S. cerevisiae, UniProt P38200 194-338)
T1 sequence (looked up): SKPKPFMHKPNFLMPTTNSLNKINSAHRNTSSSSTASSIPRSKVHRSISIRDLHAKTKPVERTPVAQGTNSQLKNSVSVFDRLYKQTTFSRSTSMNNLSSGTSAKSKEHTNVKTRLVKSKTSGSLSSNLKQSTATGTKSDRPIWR
Experiment: pull-down

B1: peptide encompassing the C-terminus of Tub1 (amino acids 415-447), wild-type (peptide)
peptide: not shown
B1: binds.
